Results published in patent US20220143204A1 (LINXIS B V, published 2022).

Key:
[1] = target: T1, human PDGFRB on LX-2 cells (human, UniProt P09619); test: binding assay on the human hepatic stellate cell line LX-2 (Example 4)
T1 construct: full-length receptor on the cell surface; The list has human PDGFRB only on SCC VII cells

[2] = target: T2, human PDGFRB extracellular domain (human, UniProt P09619 33-532); test: binding assay on immobilised human PDGFRB ectodomain, apparent affinity (Example 4)
T2 construct: extracellular domain; also called hPDGFRB-ECD; human PDGFRB ectodomain

[3] = target: T3, human PDGFRB on SCC VII cells (human, UniProt P09619 33-1106); test: binding assay on SCC VII cells transfected with human PDGFRB (Example 4)
T3 construct: whole, on cells; also called hPDGFRB; SCC-hPDGFRB

[4] = target: T4, rat PDGFRB on SCC VII cells (rat, UniProt Q05030 32-1097); test: binding assay on SCC VII cells transfected with rat PDGFRB (Example 4)
T4 construct: whole, on cells; also called rPDGFRB; SCC-rPDGFRB

[5] = target: T5, rat PDGFRB extracellular domain (rat, UniProt Q05030 32-531); test: binding assay on immobilised rat PDGFRB ectodomain, apparent affinity (Example 4)
T5 construct: extracellular domain; also called rPDGFRB-ECD; rat PDGFRB ectodomain
T5 sequence (looked up): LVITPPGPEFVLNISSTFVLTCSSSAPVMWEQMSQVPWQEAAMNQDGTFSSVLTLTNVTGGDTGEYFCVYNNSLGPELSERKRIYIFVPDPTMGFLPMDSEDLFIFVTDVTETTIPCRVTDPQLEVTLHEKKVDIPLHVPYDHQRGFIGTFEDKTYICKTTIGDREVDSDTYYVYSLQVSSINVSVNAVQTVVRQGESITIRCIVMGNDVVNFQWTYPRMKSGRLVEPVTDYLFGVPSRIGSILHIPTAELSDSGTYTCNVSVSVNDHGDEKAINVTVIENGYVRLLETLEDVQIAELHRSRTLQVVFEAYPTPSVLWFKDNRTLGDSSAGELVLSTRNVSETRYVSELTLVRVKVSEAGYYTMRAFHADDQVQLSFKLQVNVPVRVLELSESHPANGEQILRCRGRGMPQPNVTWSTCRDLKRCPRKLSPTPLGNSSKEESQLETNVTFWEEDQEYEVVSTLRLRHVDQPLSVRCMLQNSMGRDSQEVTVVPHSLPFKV

T2 sequence (P09619 33-532): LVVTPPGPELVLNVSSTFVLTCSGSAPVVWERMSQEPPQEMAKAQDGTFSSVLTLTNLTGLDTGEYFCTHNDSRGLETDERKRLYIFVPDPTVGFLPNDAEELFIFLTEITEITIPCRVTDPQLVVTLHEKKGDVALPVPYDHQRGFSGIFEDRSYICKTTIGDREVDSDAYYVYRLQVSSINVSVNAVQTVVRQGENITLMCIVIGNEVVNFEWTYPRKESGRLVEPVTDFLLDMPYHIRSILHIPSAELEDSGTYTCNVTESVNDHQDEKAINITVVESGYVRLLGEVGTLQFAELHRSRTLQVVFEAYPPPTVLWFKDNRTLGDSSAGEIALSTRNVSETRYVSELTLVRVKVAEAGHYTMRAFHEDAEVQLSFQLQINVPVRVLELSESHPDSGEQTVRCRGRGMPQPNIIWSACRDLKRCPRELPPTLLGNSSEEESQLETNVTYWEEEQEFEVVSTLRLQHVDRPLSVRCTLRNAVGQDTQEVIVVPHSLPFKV
T1 sequence (P09619 33-1106 limits assumed): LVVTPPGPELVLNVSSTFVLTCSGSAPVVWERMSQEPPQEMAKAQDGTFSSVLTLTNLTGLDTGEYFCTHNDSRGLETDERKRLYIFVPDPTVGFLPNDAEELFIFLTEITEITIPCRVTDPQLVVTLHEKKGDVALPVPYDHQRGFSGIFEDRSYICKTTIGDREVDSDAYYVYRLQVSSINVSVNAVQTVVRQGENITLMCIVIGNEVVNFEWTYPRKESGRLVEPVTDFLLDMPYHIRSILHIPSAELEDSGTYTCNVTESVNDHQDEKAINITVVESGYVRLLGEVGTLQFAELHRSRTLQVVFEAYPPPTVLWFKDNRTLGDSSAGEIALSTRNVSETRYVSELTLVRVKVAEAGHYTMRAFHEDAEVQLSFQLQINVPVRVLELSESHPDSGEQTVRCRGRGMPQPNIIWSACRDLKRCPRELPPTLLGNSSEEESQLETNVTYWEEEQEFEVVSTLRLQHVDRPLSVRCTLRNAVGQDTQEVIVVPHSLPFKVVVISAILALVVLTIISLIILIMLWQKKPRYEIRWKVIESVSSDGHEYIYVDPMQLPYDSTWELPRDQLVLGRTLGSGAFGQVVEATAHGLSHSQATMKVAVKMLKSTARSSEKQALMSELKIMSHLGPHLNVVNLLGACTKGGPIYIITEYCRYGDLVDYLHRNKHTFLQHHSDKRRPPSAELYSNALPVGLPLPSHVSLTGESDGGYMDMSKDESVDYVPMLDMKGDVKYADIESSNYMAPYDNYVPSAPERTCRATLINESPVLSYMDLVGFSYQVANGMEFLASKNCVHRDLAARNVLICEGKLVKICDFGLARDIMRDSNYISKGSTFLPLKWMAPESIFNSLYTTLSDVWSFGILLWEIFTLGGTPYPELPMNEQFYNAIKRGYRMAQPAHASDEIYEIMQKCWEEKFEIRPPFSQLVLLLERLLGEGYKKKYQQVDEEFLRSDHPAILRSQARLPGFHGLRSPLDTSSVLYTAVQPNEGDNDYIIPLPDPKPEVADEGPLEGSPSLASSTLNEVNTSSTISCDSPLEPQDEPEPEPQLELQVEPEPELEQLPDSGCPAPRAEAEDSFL
T3 sequence (P09619 33-1106): as the sequence (P09619 33-1106 limits assumed) above

B1: SP14P (VHH)
VHH: EVQLVESGGGLVQAGDSLRLSCVVSGLTFSRYGMGWFRQATGKEREFVGGISVGSSGTMYPNSVKGRFTISRDNAKSTVYLQMNSLKPEDTAVYFCAAIDQGSFVQQRDYRYWGQGTQVTVSS
notes: Llama VHH; on phage in the phage ELISA
B1 was tested, and the Kd [1] was 3.1 nM, the Kd [2] was 8.6 nM and the Kd [3] was 0.6 nM.

B2: SP23P (VHH)
VHH: EVQLVESGGELVQAGGSLRLSCAVSGRTLTSYPMGWFRQAPGKEREFVAAISWSGGDTMYADSVKGRFTISRDNSKNTVYLQMNSLKPEDTADYYCARRRYSSGISRHLVDYEYWGQGTQVTVSS
notes: as for B1
B2: binds [2].

B3: SP31P (VHH)
VHH: EVQLVESGGGLVQAGGSLRLSCAASRGTFGTYIMGWFRQAPGKEREFVAAISWRGANTYYGYSVKGRFTISRDNAKNTMYLQMADLKPEDTADYYCGVHLNGTPYYYASGYRYWGQGTQVTVSS
notes: as for B1
With B3 the Kd [4] was 31.8 nM and the Kd [5] was 276 nM.

B4: SP30P (VHH)
VHH: EVQLVESGGGLVQAGGSLRLSCAASRGTFGTDIMGWFRQAPGKEREFVAAISWRGANTYYGYSVKGRFTISRDNAKNTMYLQMADLKPEDTADYYCGVHLNGTPYYYASGYRYWGQGTQVTVSS
notes: as for B1
Binder B4 has a Kd [5] of 12.2 nM.

B5: SP10P (VHH)
VHH: EVQLVESGGGLVQAGGSLRLSCAASGRTFNGYAMGWFRQAPGKERDFVAAITWSYGYTHYAESVKGRFSISRDSANNMVYLEMNSLKPEDTAVYYCAADPKASRFRTLRRYDYWGQGTQVTVSS
notes: as for B1
Binder B5 has a Kd [3] of 0.9 nM.

B6: SP13P (VHH)
VHH: EVQLVESGGGLVQPGGSLRLSCAASESIFSINYMAWYRQAPGKQRELVAFSIDGSSTNYVDSVRGRFTASRDNAENTLYLQMNSLKPEDTAVYYCYAQGNTWAAGVWGQGTQVTVSS
notes: as for B1
In the case of B6, the Kd [2] is reported as 9.3 nM and the Kd [3] is reported as 10.4 nM.

B7: SP15P (VHH)
VHH: EVQLVESGGGLVQAGGSLRLSCAASGRAFGGPYMAWFRQTPGKGREFVAAISPSSVYTFYQDSVKGRFTISRDNTKNTAYLQMNSLKPEDTAVYYCAAEAAGEVRLETSYKYWGQGTQVTVSS
notes: as for B1
B7: binds [2].

B8: SP17P (VHH)
VHH: EVQLVESGGGLVQPGGSLRLSCAASGLTFVNYAMGWFRQAPGKERELVAGIASSGRIYYADSVAGRFTISRDNARNTVNLQMNSMKPEDTAVYYCAGRRSFSSTSAADYNYWGQGTQVTVSS
notes: as for B1
B8: binds [2].

B9: SP01P (VHH)
VHH: EVQLVESGGGLAQAGGSLRLSCVASGNIDSANGMAWYRQAPGKQRELVAHITSGTSYYVASVEGRFTISRANAKDTWYLQMNSLKPEDTGVYYCFPIGLSAHWSQGTQVTVSS
notes: as for B1
B9 was tested, and the Kd [2] was 20.4 nM and the Kd [3] was 7.8 nM.

B10: SP08P (VHH)
VHH: EVQLVESGGGLVQAGGSLRLSCAASGRTFNGYAMAWFRQAPGKERDFVASITWSYGYTYYADSAQGRFTISRDSAKNTVYLEMNSLKPEDTAVYYCAADPKASRFRILRQYAHWGQGTQVTVSS
notes: as for B1
For B10, the Kd [1] was 60.2 nM and the Kd [3] was 0.5 nM.

B11: SP07P (VHH)
VHH: EVQLVESGGGSVQTGGSLRLSCAASGRSFSTYAMAWFRQAPGKEREFVAAINRRATDTVYADSAKGRFIISRDNDKNTVYLQMDSLKTEDTAVYYCAAAKNAYDWRWDRLRDRDYWGQRGQGTQVTVSS
notes: as for B1
B11 gave a Kd [2] of 10.1 nM and a Kd [3] of 62.3 nM.

B12: SP12P (VHH)
VHH: EVQLVESGGGLVQAGGSLRLSCVISGRTSPTYPMGWFRQSPGNEREFVASINWSGGWRNYADSVKGRFTISRDDAKNTVYLQMNSLKPEDTAVYYCARGQYSSGTPVYAHEYAYWGQGTQVTVSS
notes: as for B1
Work on B12 yielded a Kd [1] of 0.6 nM and a Kd [3] of 0.3 nM.

B13: SP20P (VHH)
VHH: EVQLVESGGGLVQAGGSLRLSCVISGRTSPTYPMGWFRQSPGNEREFVASINWSGGWRNYADSVKDRFTISRDDAKNTVYLQMNSLKPEDTAVYYCARGQYSSGTPVYAHEYAYWGQGTQVTVSS
notes: as for B1
In the case of B13, the Kd [1] is reported as 53.6 nM, the Kd [2] is reported as 3.8 nM and the Kd [3] is reported as 1 nM.

B14: SP35P (VHH)
VHH: EVQLVESGGGLVQPGGSLRLSCAASGSLGSNNPMAWYRQAPGKERELVASISSAYRTHYADFVKGRFTISRDSPKNTVSLQMNNLKPEDTAVYYCGIFVSARNYWGKGTQVTVSS
notes: as for B1
B14: binds [5].

B15: SP29P (VHH)
VHH: EVQLVESGGGLVQAGDSLRLSCTVSGRTFNTYVTGWFRQAPGKEREFVAAIHQIGSTYYRNSVKGRFTISRDGAKDTVYLQMNNLKPEDSAVYYCAAGNGGYVMSDIAYGTWGQGTQVTVSS
notes: as for B1
B15: binds [5].

B16: SP05P (VHH)
VHH: EVQLVESGGGLVQAGGSLRLSCAASGRTSFSGYAMAWFRQAPGKERDFVASITWSYGYTYYTDSAQGRFTISRDSAKNTVYLEMNSLKPEDTAVYYCAADPKASRFRILREYAYWGQGTQVTVSS
notes: as for B1
With B16 the Kd [1] was 193 nM, the Kd [2] was 9.2 nM and the Kd [3] was 1.4 nM.

B17: SP25P (VHH)
VHH: EVQLVESGGGLVQPGGSLRLSCAASESIFSINAMGWYRQTPGKQREMVASITPGGFTIYADSVKGRFTISRDNAKNTLYLQMNNLRFEDTAVYYCNAFAGSATSYHDFGSWGQGTQVTVSS
notes: as for B1
B17: binds [5].

B18: SP21P (VHH)
VHH: EVQLVESGGGLVQPGGSLRLSCVVSGSSFSSYTMGWFRRAPGKQRELVAGVSTVGDTAAADSVKGRFTISRDNAKNTVYLQMNSLKPEDTAVYYCNTYPHAYLEWGQGTQVTVSS
notes: as for B1
B18: binds [2].

B19: SP36P (VHH)
VHH: EVQLVESGGGLVQAGGSLRLSCTPSITTAGTTIMAWFRQAPGNEREFVAAIWGSKTAYGDSMKGRLTISRDNVRDNGQKTVFLQMNNLQLQDTATYYCAASSGGYVHSSTSYEIWGRGTQVTVSS
notes: as for B1
For B19, the Kd [4] was 76.6 nM and the Kd [5] was 31 nM.

B20: SP32P (VHH)
VHH: EVQLVESGGGTVQAGDSLRLSCTASGRTFSTYTMGWFRQAPGKERVVVAVNTWNNFTVHQPSVKGRFTMSRDNTKNSIYLQMDSLKPEDTAVYYCAASAKGTARYDYWGQGTQVTVSS
notes: as for B1
B20: binds [5].

B21: SP27P (VHH)
VHH: EVQLVESGGGLVQIGDSLRLSCAASGGTFNRYGMGWFRQAPGKEREFVAAIRWDGVDTNYADFVKGRFTISRYNAKNTAYLQMNSLKPEDTAVYYCAADRRGLYTKHAHRYDYWGQGTQVTVSS
notes: as for B1
With B21 the Kd [5] was 25.5 nM.

B22: SP11P (VHH)
VHH: EVQLVESGGGLVQAGDSLRLSCAASGRTFSSYPIAWFRQAPGKEREFVAAITSSGLTTYYANVVKGRFAISRDNAKDTVYLQMNSLKPEDTAVHYCATSNGFLSGRDIYQHNKYIYWGQGTQVTVSS
notes: as for B1
B22: binds [2].
